The values below come from patent publication WO2019186276A2 (dated 2019).

First the molecules themselves.
B1: monoclonal antibody DC2E7 (antibody, V domains shown)
VH: DVQLVESGGGLVQPGGSRKLSCAASGFTFSSFGMHWVRQAPEKGLEWVAYISGDSNTIYYADTVKGRFTISRDNPKNTLFLQMTSLRSEDTAIYYCARTLAYWGQGTLVTVS
VL: DIQMTQSSSSFSVSLGDRVTITCKASEDIYNRLAWYQQTPGNAPSLLISGASGLETGVPSRFSGSGSGRDYTLSITSLQTEDVATYYCLQYWSIPWTFGGGTKLEIKR
notes: also called hybridoma ATCC PTA-124992
B2: monoclonal antibody DC2E2 (antibody, V domains shown)
VH: EVQLQQSGAELVRPGALVKLSCKASGFNIKDYYMHWVRQRPDQGLEWIGWLDPENDHTIYDPRFQDRANLTADTSSNTAYLQLSSLTSEDTAVYYCSYYKYDDYWGQGTTLTVS
VL: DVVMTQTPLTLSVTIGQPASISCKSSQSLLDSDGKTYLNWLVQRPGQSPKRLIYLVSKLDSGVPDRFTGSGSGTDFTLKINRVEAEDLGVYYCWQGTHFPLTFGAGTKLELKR
notes: also called DC2E2 mAb; hybridoma ATCC PTA-124991

Assay [1] deals with B1. Kind of assay: competition ELISA, peptide in solution with DC2E7, PHF-tau coated plate.
Assay [2] concerns the target phosphorylated tau 221-441 (human, UniProt P10636 538-758, in vitro phosphorylated with rat brain kinase extract; sites not determined). Nature of the assay: immunoblot of in vitro phosphorylated deletion mutants. In general terms: A western blot detects proteins with antibodies after separation by electrophoresis.
Assay [3] deals with phosphorylated tau 2N4R point mutant Thr217Ala (human, UniProt P10636 1-758, in vitro phosphorylated with rat brain kinase extract; sites not determined). Nature of the assay: immunoblot of in vitro phosphorylated point mutants.
Chain of phosphorylated tau 2N4R point mutant Thr217Ala (P10636 other isoform, or with tags, fused parts or gaps T217A T217A limits assumed): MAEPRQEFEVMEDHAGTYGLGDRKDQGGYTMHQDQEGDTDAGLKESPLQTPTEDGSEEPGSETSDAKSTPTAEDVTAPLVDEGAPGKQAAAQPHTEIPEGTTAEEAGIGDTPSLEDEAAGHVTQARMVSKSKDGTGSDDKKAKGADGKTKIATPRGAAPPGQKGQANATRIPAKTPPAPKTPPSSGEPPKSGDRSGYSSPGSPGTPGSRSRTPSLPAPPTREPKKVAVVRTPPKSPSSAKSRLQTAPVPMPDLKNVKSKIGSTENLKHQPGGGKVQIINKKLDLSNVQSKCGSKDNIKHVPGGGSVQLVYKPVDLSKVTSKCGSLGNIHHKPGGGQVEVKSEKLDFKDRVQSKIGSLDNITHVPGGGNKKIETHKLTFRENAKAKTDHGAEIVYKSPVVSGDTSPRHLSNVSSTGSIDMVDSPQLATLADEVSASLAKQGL
The target of assay [4] is B2. Nature of the assay: competition ELISA, coated tau 1-242, peptide in solution. On the technique in general: ELISA stands for enzyme-linked immunosorbent assay.
For assay [5], the target named is in vitro phosphorylated tau151-391 (human, UniProt P10636 468-708, in vitro phosphorylated with rat brain kinase extract; sites not determined). Nature of the assay: immunoblot.
Chain of in vitro phosphorylated tau151-391 (P10636 468-708 I625L): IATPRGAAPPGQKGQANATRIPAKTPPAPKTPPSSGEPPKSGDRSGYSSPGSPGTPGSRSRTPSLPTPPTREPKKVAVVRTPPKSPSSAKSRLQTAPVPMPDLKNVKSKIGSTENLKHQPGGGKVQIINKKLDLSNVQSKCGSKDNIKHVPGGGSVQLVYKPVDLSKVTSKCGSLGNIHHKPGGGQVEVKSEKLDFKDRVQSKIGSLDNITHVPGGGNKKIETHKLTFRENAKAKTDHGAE
The target of assay [6] is T1, in vitro phosphorylated tau 2N4R (human, UniProt P10636 1-758, in vitro phosphorylated with rat brain kinase extract; sites not determined).
T1 construct: also called phosphorylated 2N4R; 2N4R in vitro phosphorylated
T1 sequence (P10636 other isoform, or with tags, fused parts or gaps limits assumed): as the sequence (P10636 other isoform, or with tags, fused parts or gaps T217A T217A limits assumed) above, with A217T counted along it
Kind of assay: immunoblot.

Assay [7] deals with T2, recombinant human full-length tau 2N4R (human, UniProt P10636 1-758).
T2 construct: Expressed in E. coli, unphosphorylated; also called tau441; physiological tau (2N4R)
T2 sequence (P10636 other isoform, or with tags, fused parts or gaps limits assumed): as the sequence (P10636 other isoform, or with tags, fused parts or gaps T217A T217A limits assumed) above, with A217T counted along it
Nature of the assay: immunoblot.

A further assay addresses tau 31-441 (human, UniProt P10636 31-758). Nature of the assay: direct ELISA, coated recombinant tau, hybridoma supernatant.
Assay [8] addresses recombinant human tau isoform 0N4R (human, UniProt P10636-6 1-383). Described as above.
In assay [9] the target is recombinant human tau isoform 1N4R (human, UniProt P10636-7 1-412). The description is as above.
A further assay has as its target tau 99-441 (human, UniProt P10636 99-758). The assay is described as above.
Assay [10] addresses recombinant human tau isoform 2N3R (human, UniProt P10636-5 1-410). The description is as above.
For assay [11], the target named is recombinant human tau isoform 0N3R (human, UniProt P10636-2 1-352). The description is as above.
Chain of recombinant human tau isoform 0N3R (P10636 other isoform, or with tags, fused parts or gaps limits assumed): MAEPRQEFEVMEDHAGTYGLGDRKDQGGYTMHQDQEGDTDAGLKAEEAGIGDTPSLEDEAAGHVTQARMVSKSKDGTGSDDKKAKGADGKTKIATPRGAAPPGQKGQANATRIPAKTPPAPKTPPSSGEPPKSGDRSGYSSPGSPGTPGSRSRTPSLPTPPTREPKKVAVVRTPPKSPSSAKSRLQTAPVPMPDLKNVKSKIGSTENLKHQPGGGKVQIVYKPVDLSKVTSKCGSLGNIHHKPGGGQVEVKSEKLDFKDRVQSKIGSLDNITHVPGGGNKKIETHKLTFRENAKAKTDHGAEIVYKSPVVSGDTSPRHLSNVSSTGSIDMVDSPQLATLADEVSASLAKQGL
Assay [12] addresses recombinant human tau isoform 1N3R (human, UniProt P10636-4 1-381). The assay is described as above.
A further assay concerns the target tau 1-226 (human, UniProt P10636 1-543). The description is as above.
The next assay addresses tau 127-441 (human, UniProt P10636 378-758). The description is as above.
The target of another assay is tau151-391 (human, UniProt P10636 468-708). Described as above.
Chain of tau151-391 (P10636 468-708 I625L): as the sequence (P10636 468-708 I625L) above
In the next assay the target is T3, tau 2N4R(A134-168) (human, UniProt P10636 1-758).
T3 construct: The printed 'A' is read as the delta sign (deletion of 134-168); also called tau 2N4R with residues 134-168 deleted
T3 sequence (P10636 other isoform, or with tags, fused parts or gaps): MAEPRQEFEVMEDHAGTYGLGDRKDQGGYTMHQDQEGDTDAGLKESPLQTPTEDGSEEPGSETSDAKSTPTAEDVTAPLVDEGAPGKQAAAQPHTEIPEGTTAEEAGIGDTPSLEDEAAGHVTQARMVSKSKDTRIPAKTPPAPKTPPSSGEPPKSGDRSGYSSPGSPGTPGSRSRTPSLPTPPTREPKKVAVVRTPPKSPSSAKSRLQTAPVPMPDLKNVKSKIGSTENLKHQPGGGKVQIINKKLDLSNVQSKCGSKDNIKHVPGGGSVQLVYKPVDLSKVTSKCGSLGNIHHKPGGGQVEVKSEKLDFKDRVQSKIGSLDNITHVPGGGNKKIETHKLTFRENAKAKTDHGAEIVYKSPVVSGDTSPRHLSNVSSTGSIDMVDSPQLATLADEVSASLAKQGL
Kind of assay: direct ELISA, coated recombinant tau (5 ug/ml), hybridoma supernatant.

The next assay deals with tau 1-136 (human, UniProt P10636 1-387). The description is as above.
Chain of tau 1-136 (P10636 other isoform, or with tags, fused parts or gaps): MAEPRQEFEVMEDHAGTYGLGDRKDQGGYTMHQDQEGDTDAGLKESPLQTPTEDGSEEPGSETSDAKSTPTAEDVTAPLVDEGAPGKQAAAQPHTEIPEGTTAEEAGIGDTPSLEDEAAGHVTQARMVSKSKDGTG
The target of a further assay is T4, tau 221-441 (human, UniProt P10636 538-758).
T4 construct: Unphosphorylated form used in the DC2E2 ELISA
T4 sequence (P10636 538-758 I625L): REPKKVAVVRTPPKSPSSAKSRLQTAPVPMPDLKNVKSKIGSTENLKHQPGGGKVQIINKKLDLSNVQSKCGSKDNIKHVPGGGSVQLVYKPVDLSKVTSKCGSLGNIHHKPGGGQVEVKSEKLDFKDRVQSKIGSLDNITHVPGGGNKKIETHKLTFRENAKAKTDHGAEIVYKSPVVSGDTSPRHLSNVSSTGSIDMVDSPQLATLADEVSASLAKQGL
The assay is described as above.

For another assay, the target named is T5, tau 1-242 (human, UniProt P10636 1-559).
T5 construct: Deletion mutant numbered on tau 2N4R
Kind of assay: ELISA screen of hybridoma supernatants on coated tau 1-242.

Assay [13] addresses B2. Nature of the assay: competition ELISA, coated tau 1-242, peptide in solution with purified DC2E2.

Where no end group is shown, it is not given here. [ ]: non-standard residue; d: D form. pT = C[C@@H](OP(=O)(O)O)[C@H](N)C(=O)O

Chain of tau 99-441 (P10636 other isoform, or with tags, fused parts or gaps): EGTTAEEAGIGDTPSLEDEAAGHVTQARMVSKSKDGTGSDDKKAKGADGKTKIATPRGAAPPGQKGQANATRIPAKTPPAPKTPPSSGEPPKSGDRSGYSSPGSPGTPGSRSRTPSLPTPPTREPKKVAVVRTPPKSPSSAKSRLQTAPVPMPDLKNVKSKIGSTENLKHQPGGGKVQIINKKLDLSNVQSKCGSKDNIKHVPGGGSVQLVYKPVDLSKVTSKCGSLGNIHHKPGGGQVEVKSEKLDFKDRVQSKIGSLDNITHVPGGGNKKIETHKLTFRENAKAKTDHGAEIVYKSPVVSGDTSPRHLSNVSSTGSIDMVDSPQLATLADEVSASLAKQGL
Chain of phosphorylated tau 221-441 (P10636 538-758 I625L): as the sequence (P10636 538-758 I625L) above
Chain of recombinant human tau isoform 0N4R (P10636 other isoform, or with tags, fused parts or gaps limits assumed): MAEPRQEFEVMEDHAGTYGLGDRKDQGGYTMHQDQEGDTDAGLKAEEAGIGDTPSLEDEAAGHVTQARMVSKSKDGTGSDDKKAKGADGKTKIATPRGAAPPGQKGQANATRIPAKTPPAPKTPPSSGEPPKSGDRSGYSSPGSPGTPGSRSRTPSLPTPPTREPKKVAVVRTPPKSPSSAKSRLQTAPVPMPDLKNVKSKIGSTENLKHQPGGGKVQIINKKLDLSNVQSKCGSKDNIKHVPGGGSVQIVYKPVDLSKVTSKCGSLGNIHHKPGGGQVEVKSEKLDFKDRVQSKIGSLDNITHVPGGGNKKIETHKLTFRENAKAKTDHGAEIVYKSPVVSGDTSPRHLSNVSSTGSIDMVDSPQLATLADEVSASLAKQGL
Chain of recombinant human tau isoform 1N3R (P10636 other isoform, or with tags, fused parts or gaps limits assumed): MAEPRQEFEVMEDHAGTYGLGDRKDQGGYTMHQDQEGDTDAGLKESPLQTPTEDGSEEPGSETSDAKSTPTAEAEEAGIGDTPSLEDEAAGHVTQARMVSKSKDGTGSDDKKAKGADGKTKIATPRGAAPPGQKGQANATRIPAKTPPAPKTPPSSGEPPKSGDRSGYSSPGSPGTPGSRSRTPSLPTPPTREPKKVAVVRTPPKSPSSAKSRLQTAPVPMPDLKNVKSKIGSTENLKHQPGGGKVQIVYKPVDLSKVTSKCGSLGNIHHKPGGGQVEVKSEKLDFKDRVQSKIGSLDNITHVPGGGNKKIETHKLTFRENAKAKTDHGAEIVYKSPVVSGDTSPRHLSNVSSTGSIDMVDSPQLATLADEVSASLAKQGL
Chain of recombinant human tau isoform 2N3R (P10636 other isoform, or with tags, fused parts or gaps limits assumed): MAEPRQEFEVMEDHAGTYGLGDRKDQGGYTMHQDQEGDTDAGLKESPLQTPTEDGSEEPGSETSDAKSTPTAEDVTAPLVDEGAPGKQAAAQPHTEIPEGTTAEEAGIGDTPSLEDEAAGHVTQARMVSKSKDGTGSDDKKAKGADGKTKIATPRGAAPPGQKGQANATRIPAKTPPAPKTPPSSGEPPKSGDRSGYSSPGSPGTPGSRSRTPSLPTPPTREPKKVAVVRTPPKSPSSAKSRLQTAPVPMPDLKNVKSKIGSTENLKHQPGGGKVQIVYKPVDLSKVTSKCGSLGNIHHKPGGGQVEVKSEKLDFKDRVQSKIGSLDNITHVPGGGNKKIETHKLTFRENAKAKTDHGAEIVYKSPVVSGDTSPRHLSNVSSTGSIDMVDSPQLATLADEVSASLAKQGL

On to SR[pT]PSLP[pT]PPT (Synthetic peptide (EZBiolabs)) [peptide tau 210-220/pT212/pT217], for which, in assay [1], the binding result was “no binding”.
For B1, the binding result in assay [2] and in assay [3] was “no binding” each time.
With SR[pT]PSLP[pT]PP (Synthetic peptide (EZBiolabs)) [peptide tau 210-219/pT212/pT217], the binding result in assay [1] is “no binding”.
IPAKTPPAPKTPPSSGEPPKSGDRSGYSSP (Synthetic peptide (EZBiolabs)) [peptide tau 171-200]: the binding result in assay [4] is “no binding”.
In the case of B2, the binding result (in [5]; in assay [6]; in assay [7]; in the assay with tau 31-441; in assay [8]; in assay [9]) was “binds” each time. Besides, the binding result (with tau 99-441; in [10]; in assay [11]; in [12]; with tau 1-226; with tau 127-441) was “binds” throughout. Besides, the binding result is “binds” in the assay with tau151-391; “no binding” in the assay with tau 2N4R(A134-168); “no binding” with tau 1-136; “no binding” with tau 221-441; “binds” with tau 1-242.
Consider TPPSSGEPPKSGDRSGYSSPGSPGTPGSRS (Synthetic peptide (EZBiolabs)) [peptide tau 181-210], for which the binding result in assay [4] was “no binding”.
With SR[pT]PSLP[pT]P (Synthetic peptide (EZBiolabs)) [peptide tau 210-218/pT212/pT217], in assay [1], the binding result was “no binding”.
Take GQKGQANATRIPAKTPPAPKTPPSSGEPPK (Synthetic peptide (EZBiolabs)) [peptide tau 161-190]: the binding result in assay [13] is “binds”.
For KAKGADGKTKIATPRGAAPPGQKGQANATR (Synthetic peptide (EZBiolabs)) [peptide tau 141-170], the binding result in assay [4] is recorded as “no binding”.
